The target of data set [1] is T1, rPfARO (Plasmodium falciparum 3D7) (UniProt C0H4A5).
T1 sequence: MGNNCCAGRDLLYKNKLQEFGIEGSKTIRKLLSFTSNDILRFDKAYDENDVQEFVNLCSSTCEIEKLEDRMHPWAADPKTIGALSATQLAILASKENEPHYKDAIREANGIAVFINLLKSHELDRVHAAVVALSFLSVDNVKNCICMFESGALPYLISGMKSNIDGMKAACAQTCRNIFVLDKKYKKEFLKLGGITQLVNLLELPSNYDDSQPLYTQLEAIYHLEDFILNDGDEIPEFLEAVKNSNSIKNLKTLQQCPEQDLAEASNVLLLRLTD
As to the kind of experiment: EMSA. Conditions: EMSA: 10 mM Tris-Cl pH 7.5, 100 mM KCl, 5 mM MgCl2, 2 mM DTT, 6% glycerol, 50 ug/ml BSA, 25 ul; temperature not stated.

Data set [2] deals with T1, rPfARO (Plasmodium falciparum 3D7). The data set is described as follows: competition. Particulars: EMSA: 10 mM Tris-Cl pH 7.5, 100 mM KCl, 5 mM MgCl2, 2 mM DTT, 6% glycerol, 50 ug/ml BSA, 25 ul; temperature not stated.
Data set [3] concerns the molecule itself. The data set is described as follows: non-reducing SDS-PAGE; purified rPfARO run under non-reducing conditions, stained gel and anti-His immunoblot; ~60 kDa dimer band beside the ~32 kDa monomer; dimer band diminished progressively with increasing DTT; both bands confirmed as PfARO by LC-MS.
Data set [4] concerns the molecule itself. As to the kind of experiment: non-reducing SDS-PAGE; immunoblot of parasite lysate under non-reducing conditions with anti-PfARO antibodies; ~60 kDa dimer beside the ~32 kDa monomer.

On to “TTTTATATCATTTAATTCATATGTCTTTTCTTTCTTCTTCGCCTTCAGATCATAAGGATCTTGGACCTTTTTTCTTTCCTTCTTTTCAGAACACAAAGATGTACAACTAAAAGCATTGTCTGTATATGTTGAACGATTACTCTTGAAGGATCCCG (double strand) [AT-rich PfgyrA DNA]”, for which the binding result in data set [1] and in data set [2] was “binds” each time.

B1: Recombinant PfARO (P. falciparum Armadillo Repeats Only protein), full length, C-terminal 6-His tag (natural protein, P. falciparum (strain 3D7), UniProt C0H4A5 1-275, looked up)
chain: T1 sequence
notes: PfARO, Plasmodium falciparum strain 3D7, PlasmoDB PF3D7_0414900; full length open reading frame of 275 amino acids amplified from 3D7 cDNA; putative NES at residues 198-204 (LVNLLEL); nine cysteines; Cloned NdeI/XhoI into pET-24b; also called rPfARO; ARM Repeats Only; source: E. coli BL21 (DE3) Codon+, purified (Ni-NTA, size exclusion chromatography on Superdex-200); not shown: His6, C-terminal, …
Consider B1, for which the “stoichiometry N” value in data set [3] was found to be 2.

B2: Native PfARO parasite protein (natural protein, UniProt C0H4A5 1-275, looked up)
chain: T1 sequence
notes: PfARO, Plasmodium falciparum strain 3D7, PlasmoDB PF3D7_0414900; native protein detected at ~32 kDa; source: endogenous, P. falciparum 3D7 schizont-stage parasite lysate (detergent based)
B2: in data set [4], the “stoichiometry N” value turned out to be 2.

(Values after publication PMC4734682, “Evidence for the Nucleo-Apical Shuttling of a Beta-Catenin Like Plasmodium falciparum Armadillo Repeat Containing Protein” (PLoS ONE, 2016).)
